B1: Azoarcus group I ribozyme (parent)
chain: GUGCCUUGCGCCGGGAAACCACGCAAGGGAUGGUGUCAAAUUCGGCGAAACCUAAGCGCCCGCCCGGGCGUAUGGCAACGCCGAGCCAAGCUUCGGCGCCUGCGCCGAUGAAGGUGUAGAGACUAGACGGCACCCACCUAAGGCAAACGCUAUGGUGAAGGCAUAGUCCAGGGAGUGGCGAAAGUCACACAAACCGG

Variants of: B1
Assay: reverse-splicing fitness (ratio to wild type); higher = more active; in vitro selection; Mg2+ level not given
Procedure, shortened: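 An in vitro group I ribozyme library with randomized positions was T7-transcribed and gel-purified. In triplicate, 10 pmol RNA in EPPS pH 7.5 was reacted with 50 pmoles of a 30-nt RNA substrate for 1 h at 37 °C across several added MgCl2 levels (1–48 mM), then stopped with EDTA. Products were reverse transcribed from a substrate-complementary primer, PCR-amplified and sequenced (HiSeq 4000). Fitness is a variant's read proportion after selection over that before, normalised to wild type.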

For GUGCCUUGCGCCGGGAAACCACGCAAGGGAUGGUGUCAAAUUCGGCGAAACCUAAGCGCCCGCCCGGGCGUAUGGCAACGCGGAGCCAAGCUUCGGCGCCUGCGCCGAUGCAGGUGUAGUGACUAGACGGCACCCACCUAAGGCAAACGUUAUGGUGAAGGCAUAGUCUAGGGAGUGGCGAAAGUCACACAAACCGG, which reverse-splicing fitness is on record?
Its reverse-splicing fitness is 0.00568.

With GUGCCUUGCGCCGGGAAACCACGCAAGGGAUGGUGUCAAAUUCGGCGAAACCUAAGCGCCCGCCCGGGCGUAUGGCAACGCGGAGCCAAGCUUCGGCGCCUGCGCCGAUGCAGGUGUAGUGACUAGACGGCACCCACCUAAGGCAAACGCUAUGGUGAAGGCAUAGUCCAGGGAGCGGCGAAAGUCACACAAACCGG as the variant, how does the reverse-splicing fitness read?
Its reverse-splicing fitness is 0.0175.

For GUGCCUUGCGCCGGGAAACCACGCAAGGGAUGGUGUCAAAUUCGGCGAAACCUAAGCGCCCGCCCGGGCGUAUGGCAACGCGGAGCCAAGCUUCGGCGCCUGCGCCGAUGCAGGUGUAGUGACUAGACGGCACCCACCUAAGGCAAACGCUAUGGUGAAGGCAUAGUCCAGGGAGAGGCGAAAGUCACACAAACCGG, which reverse-splicing fitness is on record?
The reverse-splicing fitness was 0.0113.

With GUGCCUUGCGCCGGGAAACCACGCAAGGGAUGGUGUCAAAUUCGGCGAAACCUAAGCGCCCGCCCGGGCGUAUGGCAACGCGGAGCCAAGCUUCGGCGCCUGCGCCGAUGCAGGUGUAGUGACUAGACGGCACCCACCUAAGGCAAACGCUAUGGUGAAGGCAUAGUCCAGGGAGGGGCGAAAGUCACACAAACCGG as the variant, how does the reverse-splicing fitness read?
The reverse-splicing fitness was 0.00466.

Which reverse-splicing fitness does the source give for GUGCCUUGCGCCGGGAAACCACGCAAGGGAUGGUGUCAAAUUCGGCGAAACCUAAGCGCCCGCCCGGGCGUAUGGCAACGCGGAGCCAAGCUUCGGCGCCUGCGCCGAUGCAGGUGUAGUGACUAGACGGCACCCACCUAAGGCAAACGCUAUGGUGAAGGCAUAGUCUAGGGAGAGGCGAAAGUCACACAAACCGG here?
Its reverse-splicing fitness is 0.00632.

With GUGCCUUGCGCCGGGAAACCACGCAAGGGAUGGUGUCAAAUUCGGCGAAACCUAAGCGCCCGCCCGGGCGUAUGGCAACGCGGAGCCAAGCUUCGGCGCCUGCGCCGAUGCAGGUGUAGUGACUAGACGGCACCCACCUAAGGCAAACGCUAUGGUGAAGGCAUAGUCUAGGGAGCGGCGAAAGUCACACAAACCGG as the variant, how does the reverse-splicing fitness read?
Its reverse-splicing fitness is 0.00475.

Which reverse-splicing fitness does the source give for GUGCCUUGCGCCGGGAAACCACGCAAGGGAUGGUGUCAAAUUCGGCGAAACCUAAGCGCCCGCCCGGGCGUAUGGCAACGCGGAGCCAAGCUUCGGCGCCUGCGCCGAUGCAGGUGUAGUGACUAGACGGCACCCACCUAAGGCAAACGCUAUGGUGAAGGCAUAGUCUAGGGAGGGGCGAAAGUCACACAAACCGG here?
Its reverse-splicing fitness is 0.00247.

Which reverse-splicing fitness does the source give for GUGCCUUGCGCCGGGAAACCACGCAAGGGAUGGUGUCAAAUUCGGCGAAACCUAAGCGCCCGCCCGGGCGUAUGGCAACGCGGAGCCAAGCUUCGGCGCCUGCGCCGAUGCAGGUGUAGUGACUAGACGGCACCCACCUAAGGCAAACGUUAUGGUGAAGGCAUAGUCAAGGGAGGGGCGAAAGUCACACAAACCGG here?
Its reverse-splicing fitness is 0.00243.

With GUGCCUUGCGCCGGGAAACCACGCAAGGGAUGGUGUCAAAUUCGGCGAAACCUAAGCGCCCGCCCGGGCGUAUGGCAACGCGGAGCCAAGCUUCGGCGCCUGCGCCGAUGCAGGUGUAGUGACUAGACGGCACCCACCUAAGGCAAACGUUAUGGUGAAGGCAUAGUCCAGGGAGAGGCGAAAGUCACACAAACCGG as the variant, how does the reverse-splicing fitness read?
Its reverse-splicing fitness is 0.00878.

With GUGCCUUGCGCCGGGAAACCACGCAAGGGAUGGUGUCAAAUUCGGCGAAACCUAAGCGCCCGCCCGGGCGUAUGGCAACGCGGAGCCAAGCUUCGGCGCCUGCGCCGAUGCAGGUGUAGUGACUAGACGGCACCCACCUAAGGCAAACGUUAUGGUGAAGGCAUAGUCCAGGGAGGGGCGAAAGUCACACAAACCGG as the variant, how does the reverse-splicing fitness read?
The reverse-splicing fitness was 0.00397.

With GUGCCUUGCGCCGGGAAACCACGCAAGGGAUGGUGUCAAAUUCGGCGAAACCUAAGCGCCCGCCCGGGCGUAUGGCAACGCGGAGCCAAGCUUCGGCGCCUGCGCCGAUGCAGGUGUAGUGACUAGACGGCACCCACCUAAGGCAAACGUUAUGGUGAAGGCAUAGUCCAGGGAGCGGCGAAAGUCACACAAACCGG as the variant, how does the reverse-splicing fitness read?
Its reverse-splicing fitness is 0.0132.

Which reverse-splicing fitness does the source give for GUGCCUUGCGCCGGGAAACCACGCAAGGGAUGGUGUCAAAUUCGGCGAAACCUAAGCGCCCGCCCGGGCGUAUGGCAACGCGGAGCCAAGCUUCGGCGCCUGCGCCGAUGCAGGUGUAGUGACUAGACGGCACCCACCUAAGGCAAACGCUAUGGUGAAGGCAUAGUCAAGGGAGAGGCGAAAGUCACACAAACCGG here?
Its reverse-splicing fitness is 0.00425.

With GUGCCUUGCGCCGGGAAACCACGCAAGGGAUGGUGUCAAAUUCGGCGAAACCUAAGCGCCCGCCCGGGCGUAUGGCAACGCGGAGCCAAGCUUCGGCGCCUGCGCCGAUGCAGGUGUAGUGACUAGACGGCACCCACCUAAGGCAAACGCUAUGGUGAAGGCAUAGUCAAGGGAGCGGCGAAAGUCACACAAACCGG as the variant, how does the reverse-splicing fitness read?
The reverse-splicing fitness was 0.00457.

Which reverse-splicing fitness does the source give for GUGCCUUGCGCCGGGAAACCACGCAAGGGAUGGUGUCAAAUUCGGCGAAACCUAAGCGCCCGCCCGGGCGUAUGGCAACGCGGAGCCAAGCUUCGGCGCCUGCGCCGAUGCAGGUGUAGUGACUAGACGGCACCCACCUAAGGCAAACGCUAUGGUGAAGGCAUAGUCAAGGGAGGGGCGAAAGUCACACAAACCGG here?
Its reverse-splicing fitness is 0.00246.

With GUGCCUUGCGCCGGGAAACCACGCAAGGGAUGGUGUCAAAUUCGGCGAAACCUAAGCGCCCGCCCGGGCGUAUGGCAACGCGGAGCCAAGCUUCGGCGCCUGCGCCGAUGCAGGUGUAGAGACUAGACGGCACCCACCUAAGGCCAACGAUAUGGUGAAGGCAUAGUCCAGGGAGUGGCGAAAGUCACACAAACCGG as the variant, how does the reverse-splicing fitness read?
Its reverse-splicing fitness is 0.016.

Reference: the RNAGym collection of RNA variant scans (doi:10.1093/molbev/msab373)
